In article PMC4684421 (Protein expression and purification, 2015):
Like-named read-outs stand apart in the source and are kept apart here.

T1: Papain (UniProt P00784 134-345)
T1 sequence (looked up): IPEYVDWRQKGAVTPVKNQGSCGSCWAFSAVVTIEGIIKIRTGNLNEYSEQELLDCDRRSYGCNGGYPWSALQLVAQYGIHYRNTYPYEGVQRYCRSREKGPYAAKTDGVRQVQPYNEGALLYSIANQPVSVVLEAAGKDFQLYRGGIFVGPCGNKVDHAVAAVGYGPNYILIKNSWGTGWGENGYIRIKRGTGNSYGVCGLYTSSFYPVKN

B1: Human cystatin C (natural protein, UniProt P01034 27-146, looked up)
chain: SSPGKPPRLVGGPMDASVEEEGVRRALDFAVGEYNKASNDMYHSRALQVVRARKQIVAGVNYFLDVELGRTTCTKTQPNLDNCPFHDQPHLKRKAFCSFQIYAVPWQGTMTLSKSTCQDA

Assays:
Assay in all cases: enzyme inhibition kinetics
Cathepsin B (human) [1] = biological target: Cathepsin B (human)
Cathepsin B (human) [2] = biological target: Cathepsin B (human); remark: listed apart in the source
Papain [3] = biological target: T1, Papain
Papain [4] = biological target: T1, Papain; remark: listed apart in the source

Row | Molecule | Ki (Cathepsin B (human) [1]) [nM] | Ki (Cathepsin B (human) [2]) [nM] | Ki (Papain [3]) [nM] | Ki (Papain [4]) [nM]
1 | Human cystatin C (from UniProt P01034 27-146) (natural protein) | 0.1 | 0.06 |  | 
2 | B1 |  |  | < 0.005 | < 0.007
